Measured values: the supplement of paper PMC9170038

Tested on: MS2 coat protein
Assay: apparent KD of MS2 coat protein; designed switch direction (-1 OFF switch, 1 ON switch): 1; higher = weaker reporter binding
How it was run: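 The apparent KD reported per design is the median over clusters of curve fits to normalised cluster fluorescence. The RNA switches were transcribed on Illumina chips by stalled E. coli RNA polymerase. SNAP-549-labelled MS2 coat protein was titrated from 0.7 or 1.5 nM, doubling up to 3 µM, in Tris-HCl pH 7.5 buffer containing KCl, MgCl2, BSA, DTT, tRNA and Tween-20, with no input, 200 uM small-molecule ligand, or an oligonucleotide input.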

[1] = input ligand: microRNA oligo, concentration not stated
[2] = Eterna round: R95, input ligand: FMN 200 uM
[3] = Eterna round: R95, input ligand: microRNA oligo, concentration not stated
[4] = Eterna round: R95, input ligand: none

Row | Sequence | apparent KD of MS2 coat protein (input ligand: FMN 200 uM) [nM] | apparent KD of MS2 coat protein [1] [nM] | apparent KD of MS2 coat protein (input ligand: none) [nM] | apparent KD of MS2 coat protein [2] [nM] | apparent KD of MS2 coat protein [3] [nM] | apparent KD of MS2 coat protein [4] [nM]
1 | UUGUUUGGUAAAAUACAUGAGGAUCACCCAUGUUAUGGUGCAGAGGAUAUGCAUGUUUGAUUGUAGCAGAAGGCUGUUUGUUGU [JR_SSNG3_Sub035] (Eterna round: R96, puzzle: Same State NG 3) | 41.5 | 29.7 | 42.5 | – | – | –
2 | GCUGCAAUAAACGCCUACAUGAGGAUCACCCAUGUAUGUAGGCAGGAUAUCGUUUGCAAAGCAAACGAGAAGGGCUGUAGUAGC [Mat - Same State NG 3 - JL Mod - D38] (Eterna round: R96, puzzle: Same State NG 3) | 52.6 | 59.8 | 101 | – | – | –
3 | GCUCGGCUGAUGGCCUACAUGAGGAUCACCCAUGUGACUGGGCAGGAUAUCUAGAUGCAGGAUGUAGAGAAGGGCCUGCCGAGC [SameState NG3 #42] (Eterna round: R96, puzzle: Same State NG 3) | 704 | 224 | 458 | – | – | –
4 | AAUUAAGAUCGAGGAUAUCACGUCGUUUAGACGUGAGAAGGCGAUCAUAACAUGAGGAUCACCCAUGUAUUACAUGAAUUAAUU [SSNG1/4-B3] (Eterna round: R96, puzzle: Same State NG 1) | 20.6 | 26.6 | 29.1 | – | – | –
5 | UUCUCACUGGUAGGAUAUGUAGGAUAUGUACAUGAGGAUCACCCAUGUCAGUUAAUGACAGAAGGAUAGAAGGACCACAUCUCU [pwkr ssNG2 2FMN 1F5s.1] (Eterna round: R96, puzzle: Same State NG 2) | 198 | 139 | 146 | – | – | –
6 | AGAGAACAUGAGGAUCACCCAUGUAAGAGAAGUGUAGGAUAUGUGAGGAGCAGAGGAGGAACAGAAGGACAUGGAG [JR_SS!_Sub072] (puzzle: Same State 1) | – | – | – | 34.6 | 35.3 | 53.8
7 | GCGGAAACUCACAUGAGGAUCACCCAUGUUCCGGAAACGGCACAGGAUAUCUGUCCGAAAAGGUCAGAGAAGGGUGAAAUCCGC [Fiskers NG3ss - 92] (Eterna round: R96, puzzle: Same State NG 3) | 282 | 9.95 | 54.8 | – | – | –
8 | GCGCGAAAGAGCGAGGAUAUGCGGCGUAUAACAUGAGGAUCACCCAUGUCCUUCGAAUCUUGUACGCAGAAGGCGCUACAGGCGC [Robot Leg] (puzzle: Same State 2) | – | – | – | 154 | 61 | 62.2
9 | AUCAAAUACCUAGGAUAUAGUACACACAGCGGGCUAGAAGGAGGCGACCACGCUGACAUGAGGAUCACCCAUGUCCAACAGGAU [Eternabot solution 19] (Eterna round: R96, puzzle: Same State NG 1) | 48.9 | 37.8 | 52.8 | – | – | –
10 | AAUUAAGAUCAAGGAUAUCACGUCGUUUAGACGUGAGAAGGUGAUAAUUACAUGAGGAUCACCCAUGUAUAACAUGAAUUAAUU [SSNG1/9-B3] (Eterna round: R96, puzzle: Same State NG 1) | 25.5 | 27.5 | 32.1 | – | – | –
11 | UAGAGAGGAAGCGAGGAUAUCGUGGGAGGAACAUGAGGAUCACCCAUGUGUGAUGUUGAGAGGGACGAGAAGGCGCGGGAAAUUA [JR_SS2_Sub080] (puzzle: Same State 2) | – | – | – | 176 | 160 | 175
12 | GGAAAACAUGAGGAUCACCCAUGUAAUAAUAUGGGAGGAUAUCAGAUUUAAUUUAAUUUAUGAGAAGGCCUAAAGG [Mat - Same State 1 - Mod of Eli - D64] (puzzle: Same State 1) | – | – | – | 85 | 43.2 | 30.6
13 | GGUAGGUUACUACCAGACAUGAGGAUCACCCAUGUAAGUGGGAAGGAUAUGGUACCUUUUAGGUACCAGAAGGUCCAUAUAUUC [JL SSNG3 1.44] (Eterna round: R96, puzzle: Same State NG 3) | 178 | 637 | 849 | – | – | –
14 | GGCGCGGUCUCGCAGGAUAUCCACAAUCCUACAUGAGGAUCACCCAUGUCGCUGCAGGAUAUUAGGGAGAAGGGUGAUGCCGCGG [Bereri] (puzzle: Same State 2) | – | – | – | 20 | 30.4 | 41.6
15 | GUGGUCAGACAUGAGGAUCACCCAUGUGGAAUAAAUAACACACAGGAUAUCAAAUAUAAAAUAUAUGAGAAGGGUGGAUUGGUG (Eterna round: R96, puzzle: Same State NG 3) | – | 300 | – | – | – | –
16 | CAAGAAAACGCAGGAUAUACCCGGACAACCCGGGUAGAAGGGUGACACAUGAGGAUCACCCAUGUACAUGGCAAUAACCAUGGA [Sobiais] (Eterna round: R96, puzzle: Same State NG 1) | 15.2 | 10.7 | 35.4 | – | – | –

Row | Sequence | apparent KD of MS2 coat protein (input ligand: FMN 200 uM) [nM] | apparent KD of MS2 coat protein [1] [nM] | apparent KD of MS2 coat protein (input ligand: none) [nM] | apparent KD of MS2 coat protein [2] [nM] | apparent KD of MS2 coat protein [3] [nM] | apparent KD of MS2 coat protein [4] [nM]
17 | AGUCCAGCCUGAGCUGGACAAAAGCAUGUACAUGAGGAUCACCCAUGUUCAUGUACAAGCUUUUUGCUCGUCUUAAA [JL zipper 52] (Eterna round: R96, puzzle: Sensor for hsa-mir-208a) | 615 | 13.8 | 636 | – | – | –
18 | UUGUGUUUGCGAGGAUAUCGUUUGUUGAAGUUACGAGAAGGCGCUCUCUUUACAUGAGGAUCACCCAUGUCUUUGAUGCAUGAU [JR_SSNG1_Sub072] (Eterna round: R96, puzzle: Same State NG 1) | 81.1 | 53.5 | 75.1 | – | – | –
19 | GUAGCAUACCGAGGAUAUUCAUAUAAUACAUGAGGAUCACCCAUGUUAUAUAGGCGAAAGCCUUGGGAGAAGGCGGAAUGCUAC [Xeonanis - 20 Mod65] (Eterna round: R96, puzzle: Same State NG 2) | – | 10.9 | – | – | – | –
20 | AAAAUGCGGGAAGGAUAUGGGAAAGGAAGUGUACCAGAAGGUCUCGCGGCCAAGGACAUGAGGAUCACCCAUGUGAACGCCCGA [PowerStrip SSNG 1.9] (Eterna round: R96, puzzle: Same State NG 1) | 98.1 | 41 | 59.1 | – | – | –
21 | AUUUAACAAGCUUUUUGCUCGUCUUAUAAACAUGAGGAUCACCCAUGUAAUAGCGUGAGAGUUAUUAUAUAAAUAAU [JMF 87] (puzzle: Sensor for hsa-mir-208a) | – | – | – | 18 | 33.1 | 16.7
22 | CGUCCGGCCUGAGCUGGACGGAAGCAUGUACAUGAGGAUCACCCAUGUUCAUGUGCAGGCUUUUUGCUCGUCUUGUG [JL-shm-2.08 JL mod] (puzzle: Sensor for hsa-mir-208a) | – | – | – | 105 | 12.5 | 127
23 | CCGCGGGUAUCACAGGAUAUACUCAUAAUUACAUGAGGAUCACCCAUGUGACGGAAUUCCGGUGCGUAGAAGGGUGAUGGACCGC [Onquorbe] (puzzle: Same State 2) | – | – | – | 19.3 | 52.1 | 65.7
24 | AACCUAGGCAGAGGAUAUCUGGACGCGCGCACCAGAGAAGGCUGCGAGCCCUGAAUAUACAUGAGGAUCACCCAUGUCCCGCAC [Eternabot solution 15] (Eterna round: R96, puzzle: Same State NG 1) | 31.2 | 27.8 | 26.5 | – | – | –
25 | ACAUGAGACCAAGGAUAUCUUGUACCUACAUGUGACAUGAGGAUCACCCAUGUGGUAAGUAUGAGGGAGAAGGUGGAGAUAUGU [Equivalence 25 - Jieux - Same State NG 2] (Eterna round: R96, puzzle: Same State NG 2) | 26.2 | 18.8 | 36.7 | – | – | –
26 | ACAAGCUUUUUAGGAGAGAAAGGUGGGAUACAUGAGGAUCACCCAUGUAUUGUUGUUAAUAGUGGACCUCGUCUUAU [JR_SHM208A_Sub083] (puzzle: Sensor for hsa-mir-208a) | – | – | – | 26.5 | 15.7 | 29.2
27 | GCCAUCGUAUGAGGAUAUGGCACCGUUUCGGUGCCAGAAGGCAUGUCAAUUGACAUGAGGAUCACCCAUGUAUUAUCGAUGGCA [JL Fiskers NG1ss - 33 mod 6] (Eterna round: R96, puzzle: Same State NG 1) | 99.8 | 485 | 925 | – | – | –
28 | UAGUGCGUUAGAGGAUAUUCAAGGUGAAAAAAAAAUACAUGAGGAUCACCCAUGUAAAAACAUGAGGAGAAGGCUGAUGUGCUA [Omei SS(NG)2 A] (Eterna round: R96, puzzle: Same State NG 2) | – | 38 | – | – | – | –
29 | GGAAACUUGAGAGGAUAUGUAGAGGAUCACCCUACAGAAGGCUCAUUUGAGAGGAUAUGUAGAGGAUCACCCUACAGAAGGCUC [pwkr ssNG DX.13] (Eterna round: R96, puzzle: Same State NG 1) | 29.6 | 26 | 72.4 | – | – | –
30 | UUUCCAUAGAUAGGAUAUCAGUUUACAUGAGGAUCACCCAUGUUCUCUUUGGUUAUAAUUAUAUCUGAGAAGGAUCUUGAUGAA [JR_SSNG2_Sub002] (Eterna round: R96, puzzle: Same State NG 2) | – | 20.4 | – | – | – | –
31 | CAAACCGACACAGGAUAUGGAGCCGACCGGCACAUGAGGAUCACCCAUGUGCUACAGGUAUGUAGCUAGAAGGGUGAAGGUAUC [Eternabot solution 29] (Eterna round: R96, puzzle: Same State NG 2) | 48.5 | 56.9 | 118 | – | – | –
